This note sets out measurements from patent US20250075002A1 (BEIGENE SWITZERLAND, published 2025).

Like-named read-outs stand apart in the source and are kept apart here.

The target in assay [1] is T1, human CD16B (NA1) on NK92mi cells (human, UniProt O75015 17-200).
T1 construct: also called NK92mi/CD16B (NA1); NK92mi/CD16B NA1
T1 chain: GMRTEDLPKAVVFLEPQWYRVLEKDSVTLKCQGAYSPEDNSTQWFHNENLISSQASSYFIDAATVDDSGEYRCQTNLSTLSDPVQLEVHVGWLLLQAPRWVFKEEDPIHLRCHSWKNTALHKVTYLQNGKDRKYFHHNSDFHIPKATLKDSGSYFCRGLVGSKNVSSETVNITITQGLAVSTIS
The assay can be described thus: flow cytometry on NK92mi/CD16B (NA1) cells; fit not meaningful.

Assay [2] deals with T2, cyno CD16-His6 (cyno, UniProt Q8SPW2 17-208).
T2 construct: Bought ECD fragment; not shown: six-histidine tag (His6)
The assay can be described thus: antigen ELISA, coated Cyno CD16, HRP anti-human IgG; one concentration (paragraph 202 prints 1 mg/ml). In general terms: An ELISA detects its analyte on a solid surface through an enzyme-linked reagent.

Assay [3] concerns the target T3, human CD16B (NA2) on NK92mi cells (human, UniProt O75015 17-200).
T3 construct: also called NK92mi/CD16B (NA2); NK92mi/CD16B NA2
T3 chain: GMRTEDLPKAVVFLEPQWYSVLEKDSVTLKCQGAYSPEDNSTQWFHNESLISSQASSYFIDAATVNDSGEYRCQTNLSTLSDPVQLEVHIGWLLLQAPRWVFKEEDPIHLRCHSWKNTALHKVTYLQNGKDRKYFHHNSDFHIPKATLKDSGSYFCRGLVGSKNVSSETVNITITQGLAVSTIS
The assay can be described thus: flow cytometry on NK92mi/CD16B (NA2) cells. In general terms: A flow cytometer gives signals particle by particle.

The target in assay [4] is T4, human CD16A-His6 (V158) (human, UniProt P08637 17-208).
T4 construct: Bought (Sino Biologics) ECD fragment; also called CD16A 158V; human CD16A (V158); not shown: six-histidine tag (His6)
Briefly: antigen ELISA, coated Human CD16A (V158), HRP anti-human IgG; one concentration (paragraph 202 prints 1 mg/ml).

The target of assay [5] is T5, human CD16A (V158) on NK92mi cells (human, UniProt P08637 17-254).
T5 construct: NK92mi cells co-transduced with CD16A (V158) and FcRgamma cDNAs; also called NK92mi/CD16A V158; NK92mi/CD16A
The assay can be described thus: flow cytometry on NK92mi/CD16A cells (V158 by paragraph 201).

Assay [6] deals with T6, human CD16B-His6 (SH) (human, UniProt O75015 17-200).
T6 construct: Bought ECD fragment; also called CD16B SH allotype; human CD16B (SH); not shown: six-histidine tag (His6)
Briefly: antigen ELISA, coated Human CD16B (SH), HRP anti-human IgG.

The target of assay [7] is T2, cyno CD16-His6. Briefly: SPR; VHH-Fc captured on anti-human Fc surface. A general note: SPR reads the build-up and loss of mass on a sensor chip optically.
Assay [8] concerns the target T1, human CD16B (NA1) on NK92mi cells. Briefly: flow cytometry on NK92mi/CD16B (NA1) cells.
Assay [9] deals with T7, human CD16A-His6 (F158) (human, UniProt P08637 17-208).
T7 construct: Bought ECD fragment; also called human CD16A (F158); not shown: six-histidine tag (His6)
The assay can be described thus: SPR; VHH-Fc captured on anti-human Fc surface; row head prints 'KD (nM)', koff/kon shows M.

Assay [10] addresses T4, human CD16A-His6 (V158). The description is as above.
Assay [11] deals with T2, cyno CD16-His6. The assay can be described thus: SPR; VHH-Fc captured on anti-human Fc surface; column head prints 'KD (nM)', koff/kon shows M.
The target in assay [12] is T8, human CD16A (F158) on NK92mi cells (human, UniProt P08637 17-254).
T8 construct: NK92mi cells co-transduced with CD16A (F158) and FcRgamma cDNAs; also called NK92mi/CD16A F158
The assay can be described thus: flow cytometry on NK92mi/CD16A 158F cells.

Assay [13] addresses T8, human CD16A (F158) on NK92mi cells. Briefly: flow cytometry, biotinylated VHH-Fc on NK92mi/CD16A 158F cells, without human IgG1 (CB6).
The target is the same in assay [14]. Briefly: flow cytometry, biotinylated VHH-Fc on NK92mi/CD16A 158F cells, with 10 mg/ml human IgG1 CB6 as competitor.
For assay [15] the target is unchanged. The assay can be described thus: flow cytometry on live NK92mi/CD16A 158F cells.
Assay [16] deals with T7, human CD16A-His6 (F158). The assay can be described thus: SPR; VHH-Fc captured on anti-human Fc surface.
The target in assay [17] is T4, human CD16A-His6 (V158). The assay can be described thus: SPR; VHH-Fc captured on anti-human Fc surface.
For assay [18], the target named is T1, human CD16B (NA1) on NK92mi cells. Briefly: flow cytometry, NK92mi/CD16B (NA1) against NK92mi/CD16A cells (weaker on CD16B).
For assay [19], the target named is T3, human CD16B (NA2) on NK92mi cells. Briefly: flow cytometry on live NK92mi/CD16B NA2 cells, 300 nM VHH-Fc.
Assay [20] has as its target T9, human CD16B-His6 (NA2) (human, UniProt O75015 17-200).
T9 construct: Bought ECD fragment; also called CD16B NA2; human CD16B (NA2); not shown: six-histidine tag (His6)
T9 chain: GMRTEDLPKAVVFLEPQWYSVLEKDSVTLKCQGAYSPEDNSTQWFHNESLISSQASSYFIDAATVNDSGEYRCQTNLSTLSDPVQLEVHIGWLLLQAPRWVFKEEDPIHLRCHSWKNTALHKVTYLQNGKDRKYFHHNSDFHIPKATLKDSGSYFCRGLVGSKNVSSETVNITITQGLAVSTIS
The assay can be described thus: SPR; VHH-Fc captured on anti-human Fc surface; row head prints 'KD (nM)', taken as M like the rest of the table.

For assay [21], the target named is T10, human CD16B-His6 (NA1) (human, UniProt O75015 17-200).
T10 construct: Bought ECD fragment; also called CD16B NA1; human CD16B (NA1); not shown: six-histidine tag (His6)
T10 chain: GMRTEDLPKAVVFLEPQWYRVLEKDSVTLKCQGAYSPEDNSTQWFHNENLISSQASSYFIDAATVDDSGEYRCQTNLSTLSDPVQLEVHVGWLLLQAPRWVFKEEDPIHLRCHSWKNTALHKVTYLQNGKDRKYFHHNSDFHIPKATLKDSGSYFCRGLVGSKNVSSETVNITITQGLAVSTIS
The description is as above.

The target of assay [22] is T9, human CD16B-His6 (NA2). The description is as above.
For assay [23], the target named is T10, human CD16B-His6 (NA1). The assay is described as above.
Assay [24] addresses T7, human CD16A-His6 (F158). Briefly: SPR; VHH-Fc captured on anti-human Fc surface; row head prints 'KD (nM)', koff/kon shows M. This is another data set of the same source.
Assay [25] has as its target T4, human CD16A-His6 (V158). Described as above. The source holds these as a separate data set.
The target in assay [26] is T1, human CD16B (NA1) on NK92mi cells. The assay can be described thus: flow cytometry on live NK92mi/CD16B NA1 cells, 300 nM VHH-Fc.
The target in assay [27] is T7, human CD16A-His6 (F158). Briefly: SPR; VHH-Fc captured on anti-human Fc surface. The source holds these as a separate data set.
Assay [28] addresses T4, human CD16A-His6 (V158). Briefly: SPR; VHH-Fc captured on anti-human Fc surface. The source holds these as a separate data set.

What is called EC50 is the concentration giving half of the maximal effect. The low end stands for greater potency, the high end for weaker potency. As usually defined, the koff is the first-order rate constant of dissociation. A higher koff goes with a short-lived complex. One may read the kon as the second-order rate constant of association. By Kd is commonly meant the equilibrium constant for the complex coming apart. The low end stands for tighter binding, the high end for weaker binding.

T2 sequence (Q8SPW2 17-208): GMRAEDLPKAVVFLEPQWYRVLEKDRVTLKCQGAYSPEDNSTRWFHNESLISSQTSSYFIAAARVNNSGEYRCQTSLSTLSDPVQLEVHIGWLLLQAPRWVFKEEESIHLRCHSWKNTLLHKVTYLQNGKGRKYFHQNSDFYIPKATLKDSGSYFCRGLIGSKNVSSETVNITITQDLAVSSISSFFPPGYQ

B1: LS21 (scFv)
scFv: EVQLVQSGAEVKKPGESLKVSCKASGYTFTSYYMHWVRQAPGQGLEWMGIINPSGGSTSYAQKFQGRVTMTRDTSTSTVYMELSSLRSEDTAVYYCARGSAYYYDFADYWGQGTLVTVSSGGGGSGGGGSGGGGSQPVLTQPSSVSVAPGQTATISCGGHNIGSKNVHWYQQRPGQSPVLVIYQDNKRPSGIPERFSGSNSGNTATLTISGTQAMDEADYYCQVWDNYSVLFGGGTKLTVL
Consider B1, for which the EC50 was roughly 155000 µg/mL in [1], 0.136 µg/mL in assay [3] and 1.04 µg/mL in assay [5]. In addition, the binding result in assay [2] was “binds”; in assay [4], “binds”; in assay [6], “no binding”.

B2: BG523P (VHH-Fc) (VHH)
chain: QVQLVESGGGVVQPGGSLTLSCEASGRTFGSYAVGWFRQALGRGREFVAAIRRSDGTTDYVDSVKGRFTISRDNAKNTVYLQMNSLKPEDTAVYYCAASDSDYEPLGDYWGQGTQVTVSSEPKSSDKTHTCPPCPAPPAAGPSVFLFPPKPKDTLMISRTPEVTCVVVDVSHEDPEVKFNWYVDGVEVHNAKTKPREEQYNSTYRVVSVLTVLHQDWLNGKEYKCKVSNKALAAPIEKTISKAKGQPREPQVYTLPPSREEMTKNQVSLTCLVKGFYPSDIAVEWESNGQPENNYKTTPPVLDSDGSFFLYSKLTVDKSRWQQGNVFSCSVMHEALHNHYTQKSLSLSPGK
notes: Alpaca anti-CD16A VHH fused to a C-terminal human IgG1 mf Fc tag (VHH-Fc); also called parental clone
As for B2, the koff in assay [7] worked out at 8.09e-05 s⁻¹; in assay [16] it was 7.88e-05 s⁻¹; in assay [17], 6.22e-05 s⁻¹; in [27] it was 0.000128 s⁻¹; in [28] it was 0.000113 s⁻¹. The kon amounted to 280000 M⁻¹ s⁻¹ in assay [7]; 224000 M⁻¹ s⁻¹ in assay [16]; 280000 M⁻¹ s⁻¹ in [17]; 319000 M⁻¹ s⁻¹ in [27]; 276000 M⁻¹ s⁻¹ in [28]. Further, the EC50 in assay [8] worked out at 9.52 µg/mL; in assay [12] it was 10.6 nM; in assay [3], 28.9 µg/mL; in [13] it was 1.19 nM; in assay [14], 6.57 nM; in assay [15] it was 15.1 nM. For the same molecule, in assay [5], the EC50 worked out at 0.242 µg/mL. Besides, the Kd in [9] is 0.402 nM; in assay [10], 0.408 nM; in assay [11], 0.289 nM; in assay [20], 4260 nM; in [21], 1700 nM; in assay [22] it was 4950 nM. Further, the Kd in assay [23] turned out to be 1760 nM; in assay [24], 0.353 nM; in assay [25], 0.222 nM. Also, the figures for the “EMAX (MFI)” value in [12], in assay [13] and in assay [14] were 9920 MFI, 22100 MFI and 21300 MFI, respectively. Further, the “fold change of EC50 against CD16A binding” value in [18] is roughly 40 fold. Further, the “Binding signal at 300 nM (MFI)” value in [19] is 65 MFI; in assay [26], 577 MFI.
